{"source": "paper PMC5909903", "about": "“Impact of selected amino acids of HP0377 (Helicobacter pylori thiol oxidoreductase) on its functioning as a CcmG (cytochrome c maturation) protein and Dsb (disulfide bond) isomerase” (PLoS ONE, 2018)", "molecules": {"B1": {"name": "HP0377 (Helicobacter pylori thiol oxidoreductase), amino acids 25-187 (domain or fragment, Helicobacter pylori strain 26695, UniProt O25140 25-187, looked up)", "chain": "CKSNNKDKLDENLLSSGSQSSKELNDERDNIDKKSYAGLEDVFSDNKSISPNDKYMLLVFGRNGCSYCERFKKDLKNVKELRDYIKEHFSAYYVNISYSKEHDFKVGDKNNEKEIKMSTEELAQIYAVQSTPTIVLSDKTGKTIYELPGYMPSTQFLAVLEFI", "notes": "HP0377 (CcmG family thiol oxidoreductase), Helicobacter pylori 26695, amino acids 25-187 of the native HP0377; also called 25-187 variant of HP0377; C-terminal-truncated HP0377; source: E. coli, purified"}, "B2": {"name": "HP0377 (Helicobacter pylori thiol oxidoreductase), amino acids 33-221 (domain or fragment, Helicobacter pylori strain 26695, UniProt O25140 33-221, looked up)", "chain": "LDENLLSSGSQSSKELNDERDNIDKKSYAGLEDVFSDNKSISPNDKYMLLVFGRNGCSYCERFKKDLKNVKELRDYIKEHFSAYYVNISYSKEHDFKVGDKNNEKEIKMSTEELAQIYAVQSTPTIVLSDKTGKTIYELPGYMPSTQFLAVLEFIGDGKYQDTKDDEDLTKKLKAYIKYKTNLSKSKSN", "notes": "HP0377 (CcmG family thiol oxidoreductase), Helicobacter pylori 26695, amino acids 33-221 of the native HP0377; the variant previously analysed by Yoon et al. [16]; also called 33-221 variant of HP0377; N-terminal-shortened HP0377; source: E. coli, purified"}}, "key": {"[1]": {"target": "apocytochrome c (HP1227) (Helicobacter pylori) (UniProt O25825)", "experiment": "SEC; lysates of E. coli overexpressing HP0377 CSYA and HP1227 mixed, overnight at 37°C, Ni IMAC, then ENrich SEC70 in 20 mM Tris pH 8, 150 mM NaCl; fractions on SDS-PAGE with or without DTT; covalent (disulfide) complex"}, "[2]": {"target": "the molecule itself", "experiment": "cross-linking; glutaraldehyde (0.001-0.1%) on purified truncated HP0377 at 2.5 mg/ml, SDS-PAGE"}}}
{"molecule": "HP0377 with the CSYC motif changed to CSYA (C92A), amino acids 25-221, His6 fusion (from UniProt O25140 25-221) (enzyme)", "values": [{"measurement": "stoichiometry N (HP0377 per apocytochrome c)", "setting": "[1]", "value": 2}]}
{"molecule": "B1", "values": [{"measurement": "stoichiometry N", "setting": "[2]", "value": 2}]}
{"molecule": "B2", "values": [{"measurement": "stoichiometry N", "setting": "[2]", "value": 2}]}
